Measured values reported in patent publication US20200408687, “Polarization-Based Fluorescent Nucleic Acid Detection” (The General Hospital Corporation, published 2020).

Target: Taq DNA polymerase (UniProt P19821 P19821:1-832)
Assay: EMSA; band of key/amplicon hybrid shifted on adding Taq; 4 mM MgCl2, 20 mM Tris-HCl pH 8.3, 20 mM KCl, room temp; text does not name the individual keys run
Settings: tags: New England Biolabs (band shift); Maxima Hot Start Taq, Thermo Scientific, in PAD assay
Description: Electrophoretic Band Shift Experiment Solution containing 100 or 200 nM detection key, PCR products and 12.5 U Taq DNA polymerase (New England Biolabs) in 20 mM Tris-HCl (pH 8.3), 20 mM KCl, 5 mM (NH4)2SO4, and 4 mM MgCl2 was incubated at room temperature for 20 min. The solution was mixed with 6× loading buffer and subjected to electrophoresis on a 20% polyacrylamide gel (Life technologies). The analysis was carried out in 1× TBE (100 mM Tris, 90 mM Borate, 1 mM EDTA) at 150 V for 160 min at 4° C. After GelRed (Biotium) staining, gels were scanned using a UV transilluminator. DNA polymerase was neither fluorescent nor stained by the dye.
The sequence homology among genus types was kept <50% to minimize non-specific binding. When tested, the HAI keys assumed high specificity. […] Electrophoretic band-shift analysis confirmed that the detection keys, in the presence of complementary target amplicon, bound to DNA polymerase and inhibited its catalytic activity (see FIG. 24). […] This confirmed the binding between detection keys and DNA polymerase.

Chain of Taq DNA polymerase (P19821 whole entry, one chain of several): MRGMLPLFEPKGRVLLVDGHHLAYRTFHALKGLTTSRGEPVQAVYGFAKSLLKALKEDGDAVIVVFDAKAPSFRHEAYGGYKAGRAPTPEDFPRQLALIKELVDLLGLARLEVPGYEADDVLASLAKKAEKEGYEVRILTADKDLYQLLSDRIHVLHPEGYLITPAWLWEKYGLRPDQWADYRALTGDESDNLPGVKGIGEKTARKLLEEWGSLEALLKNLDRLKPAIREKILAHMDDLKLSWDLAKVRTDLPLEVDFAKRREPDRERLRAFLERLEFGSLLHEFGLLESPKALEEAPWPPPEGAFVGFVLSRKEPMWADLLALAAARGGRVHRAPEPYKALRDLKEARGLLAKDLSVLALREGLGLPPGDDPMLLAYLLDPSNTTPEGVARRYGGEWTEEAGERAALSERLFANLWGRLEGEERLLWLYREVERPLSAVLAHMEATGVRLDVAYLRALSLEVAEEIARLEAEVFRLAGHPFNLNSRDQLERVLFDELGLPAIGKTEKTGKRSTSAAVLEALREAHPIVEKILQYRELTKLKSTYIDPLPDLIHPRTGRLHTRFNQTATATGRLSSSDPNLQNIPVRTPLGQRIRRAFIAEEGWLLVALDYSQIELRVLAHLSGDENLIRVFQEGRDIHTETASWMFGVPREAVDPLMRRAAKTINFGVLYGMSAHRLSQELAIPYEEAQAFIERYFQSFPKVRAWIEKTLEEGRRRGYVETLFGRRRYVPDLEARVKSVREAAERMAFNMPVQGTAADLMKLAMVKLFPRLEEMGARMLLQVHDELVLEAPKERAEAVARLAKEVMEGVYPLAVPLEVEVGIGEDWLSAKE

B1: Escherichia detection key / Escherichia amplicon (mixed)
DNA 1: CAATGTACAGTATTGTGGAGGAAGGGAGTAAAGTTAAT
DNA 2: TGCGGGTAACGTCAATGAGCAAAGGTATTAACTTTACTCCCTTCCTCCA
modifications: amplicon strand dU in place of dT in dUTP assay
binding result: binds
